Assays:
[1] = target: T1, Fluorescence-labeled synthetic peptide PAG FAGP (not fully specified)
T1 chain: PAGFAGP

[2] = target: T2, Nma-Gly-Pro-Ala-Gly-Phe-Ala-Gly-Pro-Lys-(DNP)r-NH2 (not fully specified)
T2 chain: GPAGFAGPK

[3] = target: T3, Fluorescence-labeled synthetic peptide of Pro-Gln-Gly-Ile-Ala-Gly-Gln (not fully specified)
T3 chain: PQGIAGQ

[4] = target: T4, Fluorescence-labeled synthetic peptide GPAG FA (not fully specified)
T4 chain: GPAGFA

[5] = target: T5, Nma-Thr-Gln-Ser-Leu-Val-Thr-Pro-Lys-(DNP)r-NH2 (not fully specified)
T5 chain: TQSLVTPK

[6] = target: T6, Nma-Gly-Pro-Gln-Gly-Phe-Gln-Gly-Pro-Lys-(DNP)r-NH2 (not fully specified)
T6 chain: GPQGFQGPK

[7] = target: T7, Fluorescence-labeled synthetic peptide GPAG FAG (not fully specified)
T7 chain: GPAGFAG

[8] = target: T8, Fluorescence-labeled synthetic peptide AG FAGP (not fully specified)
T8 chain: AGFAGP

[9] = target: T9, Fluorescence-labeled synthetic peptide G FAGP (not fully specified)
T9 chain: GFAGP

[10] = target: T10, Fluorescence-labeled synthetic peptide GPAG F (not fully specified)
T10 chain: GPAGF

B1: Protease of the present invention, purified from the culture of Aureobacterium sp. MIM-CG-9535-I (FERM P-15326) (protein)
chain: LIVNTVNSIDDKWSDAQASALTYCVSTAFGARHADVVSAMESGAALWEAASSKIDFIYDSSADANCTTRNNAVLFSVEPVQTTQYIARAFFPSTAPRLQNVLIDDSIWTPGSSWTPTNVLGHELGHVLGFRHEHTRPEAGTCFEDDNWRPLTPYDSSSIMHYPQCNGSSADLSMTSVDTDGVVALYGN
Present or Absent of Specific degradation activity [1]: Present | Present or Absent of Specific degradation activity [2]: Present | Protease cutting activity (degradation of synthetic substrate) [2]: (◯) Degrades | Protease cutting activity (degradation of synthetic substrate) [3]: (X) Does not degrade | Present or Absent of Specific degradation activity [4]: Absent | Protease cutting activity (degradation of synthetic substrate) [5]: (◯) Degrades | Protease cutting activity (degradation of synthetic substrate) [6]: (◯) Degrades | Present or Absent of Specific degradation activity [7]: Absent | Present or Absent of Specific degradation activity [8]: Absent | Present or Absent of Specific degradation activity [9]: Absent | Present or Absent of Specific degradation activity [10]: Absent
